Data published in US20240109967A1 (University of Pennsylvania, published 2024).
Each block holds one binder with its values, some of them ahead of it.

Columns and labels:
[1] = target: T1, human complement C1q (in normal human complement serum) (human, UniProt P02745 23-245; P02746 28-253; P02747 29-245); test: complement fixation ELISA: antibody on captured cCTLA-4, human serum complement, anti-human C1q HRP
T1 construct: also called human serum complement

[2] = target: T2, recombinant human CD80-Fc chimera (carrier free, BioLegend) (human, UniProt P33681 35-242); test: ELISA: biotinylated cCTLA-4 ECD on plate-bound human CD80-Fc, streptavidin-AP, no antibody
T2 construct: Commercial protein; also called huCD80-Fc; huCD80; not shown: Fc of the commercial chimera, not described
T2 sequence (looked up): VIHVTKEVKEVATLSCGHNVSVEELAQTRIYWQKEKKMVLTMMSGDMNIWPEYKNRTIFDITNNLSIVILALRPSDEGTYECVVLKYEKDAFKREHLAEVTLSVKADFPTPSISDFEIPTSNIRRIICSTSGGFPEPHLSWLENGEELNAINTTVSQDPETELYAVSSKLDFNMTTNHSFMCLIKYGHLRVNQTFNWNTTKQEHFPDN

[3] = target: T3, recombinant human CD86-Fc chimera (carrier free, BioLegend) (human, UniProt P42081 24-247); test: ELISA: biotinylated cCTLA-4 ECD on plate-bound human CD86-Fc, streptavidin-AP, no antibody
T3 construct: Commercial protein; also called huCD86-Fc; huCD86; not shown: Fc of the commercial chimera, not described
T3 sequence (looked up): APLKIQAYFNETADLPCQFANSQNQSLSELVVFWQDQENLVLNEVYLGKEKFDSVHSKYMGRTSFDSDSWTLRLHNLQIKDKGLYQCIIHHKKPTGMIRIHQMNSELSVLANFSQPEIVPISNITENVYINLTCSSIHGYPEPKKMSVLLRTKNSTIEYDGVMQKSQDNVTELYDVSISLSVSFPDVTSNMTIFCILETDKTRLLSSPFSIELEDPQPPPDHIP

T1 sequence (P02745 23-245 limits assumed, chain 1 of 3): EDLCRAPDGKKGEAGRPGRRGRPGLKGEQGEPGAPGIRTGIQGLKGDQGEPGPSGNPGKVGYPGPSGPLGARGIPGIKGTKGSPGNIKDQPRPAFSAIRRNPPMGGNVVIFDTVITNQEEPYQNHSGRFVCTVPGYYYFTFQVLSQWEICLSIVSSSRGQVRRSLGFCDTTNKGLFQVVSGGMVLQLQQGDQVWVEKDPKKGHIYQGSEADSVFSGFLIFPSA
T1 sequence (P02746 28-253 limits assumed, chain 2 of 3): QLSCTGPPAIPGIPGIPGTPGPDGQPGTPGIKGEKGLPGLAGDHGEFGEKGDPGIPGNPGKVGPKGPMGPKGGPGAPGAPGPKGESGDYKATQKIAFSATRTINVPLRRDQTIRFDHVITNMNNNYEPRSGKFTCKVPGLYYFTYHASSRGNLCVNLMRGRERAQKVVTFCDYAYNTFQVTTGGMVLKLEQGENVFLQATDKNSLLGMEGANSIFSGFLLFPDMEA
T1 sequence (P02747 29-245 limits assumed, chain 3 of 3): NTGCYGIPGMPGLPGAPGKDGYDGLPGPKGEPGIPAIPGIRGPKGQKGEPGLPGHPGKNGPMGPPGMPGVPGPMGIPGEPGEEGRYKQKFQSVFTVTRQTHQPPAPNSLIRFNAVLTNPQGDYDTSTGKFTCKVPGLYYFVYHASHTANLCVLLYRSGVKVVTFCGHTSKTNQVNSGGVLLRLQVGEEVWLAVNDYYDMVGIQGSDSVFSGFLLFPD

binding result [1]: no binding (tested: 10 ug/ml antibody)
B1: A1mut2 full-length canine IgG1 (IgGA) mAb (antibody)
heavy: EVQLVETGGDLVKPGGSLRLSCVASGFSFSSYAMNWVRQAPEKGLQLVGGINSGGSSTYYTDAVKGRFTISRDNAKNTVYLQMNSLRAEDTAVYYCAISNWAYWGQGTLVTVSSASTTAPSVFPLAPSCGSTSGSTVALACLVSGYFPEPVTVSWNSGSLTSGVHTFPSVLQSSGLYSLSSMVTVPSSRWPSETFTCNVVHPASNTKVDKPVFNECRCTDTPPCPVPEPLGGPSVLIFPPKPKDILRITRTPEVTCVVLDLGREDPEVQISWFVDGKEVHTAKTQSREQQFNGTYRVVSVLPIEHQDWLTGKEFKCRVNHIDLPSPIERTISKARGRAHKPSVYVLPPSPKELSSSDTVSVTCLIKDFYPPDIDVEWQSNGQQEPERKHRMTPPQLDEDGSYFLYSKLSVDKSRWQQGDPFTCAVMHETLQNHYTDLSLSHSPGKGGGSGGGSYPYDVPDYA
light: QAVLNQPASVSGSLGQRVTISCTGSSSDIGKSYVAWYQQLPGTGPRTLINVDGNRASGVPDRFSVSRSGNTATLTISGLQAEDEADYHCSSWDWSLHTYVFGSGTQLTILGQPKASPSVTLFPPSSEELGANKATLVCLISDFYPSGVTVAWKADGSPITQGVETTKPSKQSNNKYAASSYLSLTPDKWKSHSSFSCLVTHEGSTVEKKVAPAECS
notes: The HA tag is said to be appended to the carboxyl termini of the full-length IgGs and is placed here on the heavy chain; also called A1mut2 mAb; A1mut2 antibody

binding result [1]: no binding (tested: 10 ug/ml antibody)
B2: A1mut2 full-length canine IgG4 (IgGD) mAb, HA-tagged (antibody)
heavy: EVQLVETGGDLVKPGGSLRLSCVASGFSFSSYAMNWVRQAPEKGLQLVGGINSGGSSTYYTDAVKGRFTISRDNAKNTVYLQMNSLRAEDTAVYYCAISNWAYWGQGTLVTVSSASTTAPSVFPLAPSCGSTSGSTVALACLVSGYFPEPVTVSWNSGSLTSGVHTFPSVLQSSGLYSLSSMVTVPSSRWPSETFTCNVVHPASNTKVDKPVPKESTCKCISPCPVPESLGGPSVFIFPPKPKDILRITRTPEITCVVLDLGREDPEVQISWFVDGKEVHTAKTQPREQQFNSTYRVVSVLPIEHQDWLTGKEFKCRVNHIGLPSPIERTISKARGQAHQPSVYVLPPSPKELSSSDTVTLTCLIKDFFPPEIDVEWQSNGQPEPESKYHTTAPQLDEDGSYFLYSKLSVDKSRWQQGDPFTCAVMHEALQNHYTDLSLSHSPGKGGGSGGGSYPYDVPDYA
light: B1 light
notes: also called A1mut2 IgGD

binding result [2]: binds | binding result [3]: binds
B3: recombinant canine CTLA-4 extracellular domain protein (receptor, not shown: small tags and cut ends)
chain: KGMHVAQPAVVLASSRGVASFVCEYGSSGNAAEVRVTVLRQAGSQMTEVCAATYTVEDELAFLDDSTCTGTSSGNKVNLTIQGLRAMDTGLYICKVELMYPPPYYVGMGNGTQIYVIDPEPCPDSD
modifications: biotin on the Avi tag (BirA ligase) in the ELISA, panning and interaction assays
notes: Cloned into pFUSE containing an HA tag, made in 293T cells; The SPR analyte is called soluble cCTLA-4 ECD, and biotinylation is not mentioned there; also called cCTLA-4; cCTLA-4 ECD
